Results taken from article PMC4797294.

Biological target: T1, pVIc-TMR (UniProt P03274 240-250)
T1 chain: GVQSLKRRRCF
Assay: fluorescence polarization

B1: 30 bp dsDNA (dsDNA)
DNA 1: GACGACTAGGACGACGACGAGGATGACGAC
DNA 2: GTCGTCATCCTCGTCGTCGTCCTAGTCGTC
Kd: 262 ± 88 nM
